Where a chain is given by its changes, count along the chain named. Numbers in names are those of the source.
B1: CasPhi.12 L26R: variant of CasPhi.12, SEQ ID NO: 1603; delivered encoded in AAV9-4A vectors PL26297 or PL31718 (protein)
chain: MIKPTVSQFLTPGFKLIRNHSRTAGRKLKNEGEEACKKFVRENEIPKDECPNFQGGPAIANIIAKSREFTEWEIYQSSLAIQEVIFTLPKDKLPEPILKEEWRAQWLSEHGLDTVPYKEAAGLNLIIKNAVNTYKGVQVKVDNKNKNNLAKINRKNEIAKLNGEQEISFEEIKAFDDKGYLLQKPSPNKSIYCYQSVSPKPFITSKYHNVNLPEEYIGYYRKSNEPIVSPYQFDRLRIPIGEPGYVPKWQYTFLSKKENKRRKLSKRIKNVSPILGIICIKKDWCVFDMRGLLRTNHWKKYHKPTDSINDLFDYFTGDPVIDTKANVVRFRYKMENGIVNYKPVREKKGKELLENICDQNGSCKLATVDVGQNNPVAIGLFELKKVNGELTKTLISRHPTPIDFCNKITAYRERYDKLESSIKLDAIKQLTSEQKIEVDNYNNNFTPQNTKQIVCSKLNINPNDLPWDKMISGTHFISEKAQVSNKSEIYFTSTDKGKTKDVMKSDYKWFQDYKPKLSKEVRDALSDIEWRLRRESLEFNKLSKSREQDARQLANWISSMCDVIGIENLVKKNNFFGGSGKREPGWDNFYKPKKENRWWINAIHKALTELSQNKGKRVILLPAMRTSITCPKCKYCDSKNRNGEKFNCLKCGIELNADIDVATENLATVAITAQSMPKPTCERSGDAKKPVRARKAKAPEFHDKLAPSYTVVLREAV
B2: CasM.265466 D220R: variant of CasM.265466, SEQ ID NO: 1602; delivered encoded in AAV9-4A vectors PL31719, PL31720, PL31721 (protein)
chain: MSVLTRKVQLIPVGDKEERDRVYKYLRDGIEAQNRAMNLYMSGLYFAAINEASKEDRKELNQLYSRIATSSKGSAYTTDIEFPTGLASTSTLSMAVRQDFTKSLKDGLMYGRVSLPTYRKDNPLFVDVRFVALRGTKQKYNGLYHEYKSHTEFLDNLYSSDLKVYIKFANDITFQVIFGNPRKSSALRSEFQNIFEEYYKVCQSSIQFSGTKIILNMAMRIPDKEIELDEDVCVGVDLGIAIPAVCALNKNRYSRVSIGSKEDFLRVRTKIRNQRKRLQTNLKSSNGGHGRKKKMKPMDRFRDYEANWVQNYNHYVSRQVVDFAVKNKAKYINLENLEGIRDDVKNEWLLSNWSYYQLQQYITYKAKTYGIEVRKINPYHTSQRCSCCGYEDAGNRPKKEKGQAYFKCLKCGEEMNADFNAARNIAMSTEFQSGKKTKKQKKEQHENK
B3: CasPhi.12 L26R, I471T, S223P, D703G: CasPhi.12 engineered variant, SEQ ID NO: 1607 (protein)
chain: B1 chain with S223P, I471T, D703G

Experiments:
mouse PCSK9 gene = assay: In vivo editing of PCSK9 in muscle tissues via AAV9-4A delivery of CasPhi.12 and CasM.265466 variants, indels by NGS; set-up: species or system C57BL/6J mice; conditions: for inducing indels in vivo at the PCSK9 locus across different muscle tissues: summary in words
Source text: The purpose of the study was to assess the capability of two effector protein variants, CasPhi.12 L26R (a variant of CasPhi.12) and CasM.265466 D220R (a variant of CasM.265466), to edit nucleic acid sequences within muscle tissues in vivo. The study focused on PCSK9 as an exemplary gene target.
In this study, an AAV9-4A vector was employed as the delivery vehicle for introducing the effector protein and gRNA into the specific target tissues. The DNA encoding the effector protein (e.g., SaCas9, CasPhi.12 L26R, or CasM.265466 D220R) and its corresponding promoter (e.g., ck8e or spc5), along with the DNA encoding the gRNA containing the targeting spacer sequence specific to PCSK9 (referred to as PCSK9 in the plasmid) and its u6 promoter were cloned into the AAV9-4A plasmid between the AAV inverted terminal repeats (ITRs), creating AAV9 constructs as follows: • 1) pssAAV-ITR-u6-PCSK9-ck8e-saCas9-bGHpolya-ITR (PL26295) • 2) pssAAV-ITR-u6-PCSK9-ck8e-L26R-wpre-hGHpolya-ITR (PL26297) • 3) pssAAV-ITR-u6-PCSK9-spc5-12-L26R-wpre-hGHpolya-ITR (PL31718) • 4) pssAAV-ITR-u6-PCSK9-ck8e-D220R-wpre-hGHpolya-ITR (PL31719) • 5) pssAAV-ITR-u6-PCSK9-spc5-12-D220R-wpre-hGHpolya-ITR (PL31720) • 6) pscAAV-ITR-u6-PCSK9-Spc5-12-D220R-HSVpolyA-ITR (PL31721)
The sequences of the gRNA designed for use in conjunction with SaCas9, CasPhi.12 L26R, or CasM.265466 D220R for targeting the mouse PCSK9 gene are provided in TABLE 14.
6-week old male C57BL/6J mice were given a single intravenous (IV) bolus through the tail vein using a 1.0 cc syringe with a 27G-⅝″ needle or a single intramuscular (IM) bolus into the gastrocnemius.
4 weeks after the treatment, the mice were euthanized for assessment. Before collecting the tissues, the mice underwent whole-body perfusion via the left ventricle using 5.0-10.0 mL of PBS to remove any remaining blood from the tissues. Tissue samples weighing 100 mg were then dissected from the liver, heart, gastrocnemius, diaphragm, pectoral, and masseter, respectively, and placed on a plate for subsequent Next-Generation Sequencing (NGS) analysis. For the intramuscular (IM) groups, both the left and right gastrocnemius were weighed and harvested. For all other groups, only the left gastrocnemius was weighed and harvested.
The genomic DNA isolated from the muscle tissues was subject to NGS and aligned to a reference DNA sequence for the analysis of insertions or deletions (indels).

DMD = DMD exon precise editing in HEK293T cells with CasPhi.12 engineered variant, MCP-RT and retRNA, Amplicon Sequencing; type: cell-based, human; conditions: MCP-RT SEQ ID NO: 1608, retRNA SEQ ID NO: 1590, guide SEQ ID NO: 1327, 72 hours
Experimental: HEK293T cells were transfected with plasmids encoding effector protein CasPhi.12 L26R, I471T, S223P, D703G (SEQ ID NO: 1607), a reverse transcriptase (RT) (SEQ ID NO: 1608), a retRNA (SEQ ID NO: 1590), and a guide nucleic acid targeting DMD (SEQ ID NO: 1327). The effector protein was not linked to the RT, but the RT was fused to an MS2 coat protein (MCP) capable of binding an MS2 aptamer loop in the retRNA. Cells were harvested 72 hours later and cell lysates were prepared for Amplicon Sequencing. The percentage of reads containing precise edits were analyzed.

Row | Molecule | indel rate in the PCSK9 gene (mouse PCSK9 gene; heart, PL26297 vector, IV administration, 4 weeks after treatment) | indel rate in the PCSK9 gene (mouse PCSK9 gene; heart, PL31718 vector, IV administration, 4 weeks after treatment) | indel rate in the PCSK9 gene (mouse PCSK9 gene; masseter, PL26297 vector, IM administration, 4 weeks after treatment) | indel rate in the PCSK9 gene (mouse PCSK9 gene; right gastrocnemius, PL26297 vector, IM administration, 4 weeks after treatment) | inducing indels in vivo at the PCSK9 locus across different muscle tissues (mouse PCSK9 gene) | indel rate (mouse PCSK9 gene; diaphragm, PL31719 vector, IV administration, 4 weeks after treatment) | indel rate (mouse PCSK9 gene; heart, PL31719 vector, IV administration, 4 weeks after treatment) | indel rate (mouse PCSK9 gene; heart, second statement ('Additionally'), vector PL31719, IV administration) | fold greater indel rate in the heart compared to SaCas9 (mouse PCSK9 gene; heart, versus SaCas9 delivered in the PL26295 vector via IV administration) | indel rate (mouse PCSK9 gene; left gastrocnemius, PL31719 vector, IV administration, 4 weeks after treatment) | indel rate (mouse PCSK9 gene; left gastrocnemius, second statement ('Additionally'), vector PL31719, IV administration) | indel rate (mouse PCSK9 gene; liver, PL31719 vector, IV administration, 4 weeks after treatment) | indel rate (mouse PCSK9 gene; masseter, PL31719 vector, IV administration, 4 weeks after treatment) | indel rate (mouse PCSK9 gene; pectoral, PL31719 vector, IV administration, 4 weeks after treatment) | indel rate (mouse PCSK9 gene; pectoral, second statement ('Additionally'), vector PL31719, IV administration) | precise editing, average (percentage of reads containing precise edits) (DMD) | precise editing, one replicate (DMD)
1 | B1 | about 8% | about 8% | about 3% | about 5% | highly efficient | – | – | – | – | – | – | – | – | – | – | – | –
2 | B2 | – | – | – | – | highly efficient | about 10% | about 20% | about 11% | approximately 2 fold | about 15% | about 10% | about 25% | about 5% | about 13% | about 3% | – | –
3 | B3 | – | – | – | – | – | – | – | – | – | – | – | – | – | – | – | 1.6% | 2.1%
